± gives the uncertainty stated by the source.
Assay: self-splicing fitness, log relative to wild type (ln ratio); higher = more splicing; Tetrahymena group I intron in knt gene, E. coli kanamycin selection, DiMSum; sequences stand for … in CUCUCU…GGAGGGAAAAGUUAUCAGGCAUGCACCUGGUAGCUAGUCUUUAAACCAAUAGAUUGCAUCGGUUUAAAAGGCAAGACCGUCAAAUUGCGGGAAAGGGGUCAACAGCCGUUCAGUACCAAGUCUCAGGGGAAACUUUGAGAUGGCCUUGCAAAGGGUAUGGUAAUAAGCUGACGGACAUGGUCCUAACCACGCAGCCAAGUCCUAAGUCAACAGAUCUUCUGUUGAUAUGGAUGCAGUUCACAGACUAAAUGUCGGUCGGGGAAGAUGUAUUCUUCUCAUAAGAUAUAGUCGGACCUCUCCUUAAUGGGAGCUAGCGGAUGAAGUGAUGCAACACUGGAGCCGCUGGGAACUAAUUUGUAUGCGAAAGUAUAUUGAUUAGUUUUGGAGUACUCGUGGUCG
In short: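 Pooled colonies went to amplicon sequencing on an Illumina HiSeq 2500 after six replicate transformations. The plates were LB agar with 100 μg/mL carbenicillin, 50 μM IPTG and 0.2% rhamnose, with or without 25 μg/mL kanamycin, incubated overnight at 37°C or 30°C. The E. coli BL21(DE3) library had all eight P1ex-region intron nucleotides randomised, the intron placed in the knt kanamycin-resistance gene on pET-22b(+). DiMSum fitness is the error-weighted combination of replicate fold changes, kanamycin against none, normalised to wild type.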

| Sequence | self-splicing fitness (ln) (30 °C) | self-splicing fitness (ln) (37 °C) |
| --- | --- | --- |
| UGGGAGCAAUAUUACGAAAA | -2.22 ± 0.31 | -2.16 ± 0.34 |
| GUGUAGCAAUAUUACGAUGU | -1.36 ± 0.12 | -0.234 ± 0.14 |
| GCGCAGCAAUAUUACGGUUA | -1.11 ± 0.084 | -0.631 ± 0.08 |
| AUGGAGCAAUAUUACGCGCA | -1.66 ± 0.28 | -0.77 ± 0.23 |
| CAAUAGCAAUAUUACGGCCA | -3.08 ± 0.3 | -1.49 ± 0.32 |
| GACUAGCAAUAUUACGUUGC | -2.56 ± 0.12 | -2.5 ± 0.2 |
| AUCCAGCAAUAUUACGGCCG | -1.22 ± 0.097 | -0.00834 ± 0.12 |
| CCCAAGCAAUAUUACGCCUC | -2.93 ± 0.25 | -2.93 ± 0.34 |
| CUACAGCAAUAUUACGCGAC | -1.03 ± 0.072 | -0.76 ± 0.11 |
| UUAGAGCAAUAUUACGAUUG | -1.95 ± 0.11 | -0.556 ± 0.14 |
| GUCAAGCAAUAUUACGACGU | -1.26 ± 0.056 | 0.099 ± 0.07 |
| AUUUAGCAAUAUUACGAGGA | -2.7 ± 0.49 | -2.18 ± 0.4 |
| CUCGAGCAAUAUUACGUAUG | -2.93 ± 0.14 | -1.2 ± 0.13 |
| GACAAGCAAUAUUACGUGAA | -1.81 ± 0.076 | -1.11 ± 0.089 |
| UAGGAGCAAUAUUACGUCAG | -4.59 ± 0.42 | -1.7 ± 0.26 |
| CAUAAGCAAUAUUACGCUCU | -2.58 ± 0.19 | -1.3 ± 0.12 |
| AUCGAGCAAUAUUACGUCCG | -3.17 ± 0.31 | -2.94 ± 0.44 |
| GUAAAGCAAUAUUACGCAAU | -0.316 ± 0.098 | -0.564 ± 0.16 |
| CAUAAGCAAUAUUACGGGGG | -2.49 ± 0.094 | -2.42 ± 0.14 |

| Sequence | self-splicing fitness (ln) (30 °C) | self-splicing fitness (ln) (37 °C) |
| --- | --- | --- |
| AACCAGCAAUAUUACGAAGU | -2.26 ± 0.066 | -0.559 ± 0.069 |
| UUGUAGCAAUAUUACGUUGG | -2.77 ± 0.18 | -1.98 ± 0.21 |
| ACUUAGCAAUAUUACGUAGU | -2.87 ± 0.11 | -2.73 ± 0.19 |
| UCUAAGCAAUAUUACGGACC | -1.71 ± 0.24 | -1.99 ± 0.32 |
| AUAUAGCAAUAUUACGCGUG | -1.1 ± 0.12 | -0.528 ± 0.14 |
| AAACAGCAAUAUUACGAGGC | -3.32 ± 0.17 | -3.12 ± 0.28 |
| UUAUAGCAAUAUUACGCGUA | -0.829 ± 0.14 | -1.17 ± 0.14 |
| UAGCAGCAAUAUUACGCGUU | -2.72 ± 0.1 | -1.24 ± 0.11 |
| AUGCAGCAAUAUUACGUUCA | -1.16 ± 0.11 | -0.74 ± 0.12 |
| AGGAAGCAAUAUUACGCCUG | -1.15 ± 0.14 | 0.257 ± 0.17 |
| UCGUAGCAAUAUUACGUGUU | -3.06 ± 0.21 | -2.46 ± 0.19 |
| CCGCAGCAAUAUUACGCUAA | -3.22 ± 0.22 | -2.55 ± 0.23 |
| GGGGAGCAAUAUUACGAUCG | -1.44 ± 0.2 | -0.888 ± 0.3 |
| CUGAAGCAAUAUUACGACCA | -4.88 ± 0.41 | -1.22 ± 0.18 |
| GUAUAGCAAUAUUACGUGUU | -3.38 ± 0.18 | -1.63 ± 0.18 |
| ACGCAGCAAUAUUACGGCGG | -2.14 ± 0.074 | -1.91 ± 0.14 |
| AUGGAGCAAUAUUACGAAGG | -3 ± 0.23 | -2.29 ± 0.34 |
| GAAAAGCAAUAUUACGUGGA | -2.96 ± 0.12 | -1.89 ± 0.12 |

From the supplement of paper PMC7877785
